Series [1] deals with HeLa Kyoto. The experiment in a line: solubility change mitosis vs G1/S (difference of NP-40 vs SDS log2 ratios) (log2 ratio difference); higher = more soluble in mitosis.
In series [2] the test system is HeLa Kyoto. The experiment in a line: solubility in G1/S (NP-40 vs SDS abundance) (log2 ratio); higher = more soluble. The conditions noted are these: cell cycle stage: G1/S.
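For solubility change mitosis vs G1/S (difference of NP-40 vs SDS log2 ratios) in this document: synchronized HeLa Kyoto cells (double thymidine block for G1/S, nocodazole release for mitosis), protein amounts in NP-40 versus SDS lysates quantified by mass spectrometry, three biological replicates.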
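For solubility in G1/S (NP-40 vs SDS abundance) in this document: HeLa Kyoto cells arrested at G1/S by double thymidine block, proteins quantified by TMT10plex mass spectrometry in mild NP-40 versus SDS extracts, three biological replicates.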

With “MSVDKAELCGSLLTWLQTFHVPSPCASPQDLSSGLAVAYVLNQIDPSWFNEAWLQGISEDPGPNWKLKVSNLKMVLRSLVEYSQDVLAHPVSEEHLPDVSLIGEFSDPAELGKLLQLVLGCAISCEKKQDHIQRIMTLEESVQHVVMEAIQELMTKDTPDSLSPETYGNFDSQSRRYYFLSEEAEEGDELQQRCLDLERQLMLLSEEKQSLAQENAGLRERMGRPEGEGTPGLTAKKLLLLQSQLEQLQEENFRLESGREDERLRCAELEREVAELQHRNQALTSLAQEAQALKDEMDELRQSSERAGQLEATLTSCRRRLGELRELRRQVRQLEERNAGHAERTRQLEDELRRAGSLRAQLEAQRRQVQELQGQRQEEAMKAEKWLFECRNLEEKYESVTKEKERLLAERDSLREANEELRCAQLQPRGLTQADPSLDPTSTPVDNLAAEILPAELRETLLRLQLENKRLCRQEAADRERQEELQRHLEDANRARHGLETQHRLNQQQLSELRAQVEDLQKALQEQGGKTEDAISILLKRKLEEHLQKLHEADLELQRKREYIEELEPPTDSSTARRIEELQHNLQKKDADLRAMEERYRRYVDKARMVMQTMEPKQRPAAGAPPELHSLRTQLRERDVRIRHLEMDFEKSRSQREQEEKLLISAWYNMGMALQQRAGEERAPAHAQSFLAQQRLATNSRRGPLGRLASLNLRPTDKH [HOOK2]”, in series [1], the “solubility change mitosis (log2)” value is -0.0619. Moreover, the “solubility in G1/S (log2)” value in series [2] came to 0.231.
In the same order, the values of “MSWIPFKIGQPKKQIVPKTVERDFEREYGKLQQLEEQTRRLQKDMKKSTDADLAMSKSAVKISLDLLSNPLCEQDQDLLNMVTALDTAMKRMDAFNQEKVNQIQKTVIEPLKKFGSVFPSLNMAVKRREQALQDYRRLQAKVEKYEEKEKTGPVLAKLHQAREELRPVREDFEAKNRQLLEEMPRFYGSRLDYFQPSFESLIRAQVVYYSEMHKIFGDLSHQLDQPGHSDEQRERENEAKLSELRALSIVADD [BIN3]” are 0.0471 and 0.418.
Take “MSWLLFLAHRVALAALPCRRGSRGFGMFYAVRRGRKTGVFLTWNECRAQVDRFPAARFKKFATEDEAWAFVRKSASPEVSEGHENQHGQESEAKASKRLREPLDGDGHESAEPYAKHMKPSVEPAPPVSRDTFSYMGDFVVVYTDGCCSSNGRRRPRAGIGVYWGPGHPLNVGIRLPGRQTNQRAEIHAACKAIEQAKTQNINKLVLYTDSMFTINGITNWVQGWKKNGWKTSAGKEVINKEDFVALERLTQGMDIQWMHVPGHSGFIGNEEADRLAREGAKQSED [RNASEH1]”: the “solubility change mitosis (log2)” value in series [1] was -0.0935. Besides, the “solubility in G1/S (log2)” value in series [2] is 0.274.
In the same order, the values of “MTALSARMLTRSRSLGPGAGPRGCREEPGPLRRREAAAEARKSHSPVKRPRKAQRLRVAYEGSDSEKGEGAEPLKVPVWEPQDWQQQLVNIRAMRNKKDAPVDHLGTEHCYDSSAPPKVRRYQVLLSLMLSSQTKDQVTAGAMQRLRARGLTVDSILQTDDATLGKLIYPVGFWRSKVKYIKQTSAILQQHYGGDIPASVAELVALPGVGPKMAHLAMAVAWGTVSGIAVDTHVHRIANRLRWTKKATKSPEETRAALEEWLPRELWHEINGLLVGFGQQTCLPVHPRCHACLNQALCPAAQGL [NTHL1]” are 0.29 and 0.0579.
On to “MTLKASEGESGGSMHTALSDLYLEHLLQKRSRPEAVSHPLNTVTEDMYTNGSPAPGSPAQVKGQEVRKVRLIQFEKVTEEPMGITLKLNEKQSCTVARILHGGMIHRQGSLHVGDEILEINGTNVTNHSVDQLQKAMKETKGMISLKVIPNQQSRLPALQMFMRAQFDYDPKKDNLIPCKEAGLKFATGDIIQIINKDDSNWWQGRVEGSSKESAGLIPSPELQEWRVASMAQSAPSEAPSCSPFGKKKKYKDKYLAKHSSIFDQLDVVSYEEVVRLPAFKRKTLVLIGASGVGRSHIKNALLSQNPEKFVYPVPYTTRPPRKSEEDGKEYHFISTEEMTRNISANEFLEFGSYQGNMFGTKFETVHQIHKQNKIAILDIEPQTLKIVRTAELSPFIVFIAPTDQGTQTEALQQLQKDSEAIRSQYAHYFDLSLVNNGVDETLKKLQEAFDQACSSPQWVPVSWVY [MPP1]”, for which, in series [1], the “solubility change mitosis (log2)” value was -0.0545. Besides, the “solubility in G1/S (log2)” value in series [2] was 0.098.
For “MTMGDKKSPTRPKRQAKPAADEGFWDCSVCTFRNSAEAFKCSICDVRKGTSTRKPRINSQLVAQQVAQQYATPPPPKKEKKEKVEKQDKEKPEKDKEISPSVTKKNTNKKTKPKSDILKDPPSEANSIQSANATTKTSETNHTSRPRLKNVDRSTAQQLAVTVGNVTVIITDFKEKTRSSSTSSSTVTSSAGSEQQNQSSSGSESTDKGSSRSSTPKGDMSAVNDESF [RYBP]”, the “solubility change mitosis (log2)” value in series [1] is 0.0865. In addition, the “solubility in G1/S (log2)” value in series [2] was 0.252.
Take “MTPVRMQHSLAGQTYAVPLIQPDLRREEAVQQMADALQYLQKVSGDIFSRISQQVEQSRSQVQAIGEKVSLAQAKIEKIKGSKKAIKVFSSAKYPAPERLQEYGSIFTGAQDPGLQRRPRHRIQSKHRPLDERALQEKLKDFPVCVSTKPEPEDDAEEGLGGLPSNISSVSSLLLFNTTENLYKKYVFLDPLAGAVTKTHVMLGAETEEKLFDAPLSISKREQLEQQVPENYFYVPDLGQVPEIDVPSYLPDLPGIANDLMYIADLGPGIAPSAPGTIPELPTFHTEVAEPLKVDLQDGVLTPPPPPPPPPPAPEVLASAPPLPPSTAAPVGQGARQDDSSSSASPSVQGAPREVVDPSGGRATLLESIRQAGGIGKAKLRSMKERKLEKKKQKEQEQVRATSQGGHLMSDLFNKLVMRRKGISGKGPGAGEGPGGAFARVSDSIPPLPPPQQPQAEEDEDDWES [WASH2P]”: the “solubility change mitosis (log2)” value in series [1] came to 0.0339. In addition, the “solubility in G1/S (log2)” value in series [2] came to 0.453.
On to “MTQDRPLLAVQEALKKCFPVVEEQQGLWQSALRDCQPLLSSLSNLAEQLQAAQNLRFEDVPALRAFPDLKERLRRKQLVAGDIVLDKLGERLAILLKVRDMVSSHVERVFQIYEQHADTVGIDAVLQPSAVSPSVADMLEWLQDIERHYRKSYLKRKYLLSSIQWGDLANIQALPKAWDRISKDEHQDLVQDILLNVSFFLEE [C1ORF109]”, for which the “solubility change mitosis (log2)” value in series [1] was 0.16. Also, the “solubility in G1/S (log2)” value in series [2] is 0.0701.
In the same order, the values of “MTSKGPEEEHPSVTLFRQYLRIRTVQPKPDYGAAVAFFEETARQLGLGCQKVEVAPGYVVTVLTWPGTNPTLSSILLNSHTDVVPVFKEHWSHDPFEAFKDSEGYIYARGAQDMKCVSIQYLEAVRRLKVEGHRFPRTIHMTFVPDEEVGGHQGMELFVQRPEFHALRAGFALDEGIANPTDAFTVFYSERSPWWVRVTSTGRPGHASRFMEDTAAEKLHKVVNSILAFREKEWQRLQSNPHLKEGSVTSVNLTKLEGGVAYNVIPATMSASFDFRVAPDVDFKAFEEQLQSWCQAAGEGVTLEFAQKWMHPQVTPTDDSNPWWAAFSRVCKDMNLTLEPEIMPAATDNRYIRAVGVPALGFSPMNRTPVLLHDHDERLHEAVFLRGVDIYTRLLPALASVPALPSDS [ACY1]” are -0.0632 and 0.288.
“MTTRQATKDPLLRGVSPTPSKIPVRSQKRTPFPTVTSCAVDQENQDPRRWVQKPPLNIQRPLVDSAGPRPKARHQAETSQRLVGISQPRNPLEELRPSPRGQNVGPGPPAQTEAPGTIEFVADPAALATILSGEGVKSCHLGRQPSLAKRVLVRGSQGGTTQRVQGVRASAYLAPRTPTHRLDPARASCFSRLEGPGPRGRTLCPQRLQALISPSGPSFHPSTRPSFQELRRETAGSSRTSVSQASGLLLETPVQPAFSLPKGEREVVTHSDEGGVASLGLAQRVPLRENREMSHTRDSHDSHLMPSPAPVAQPLPGHVVPCPSPFGRAQRVPSPGPPTLTSYSVLRRLTVQPKTRFTPMPSTPRVQQAQWLRGVSPQSCSEDPALPWEQVAVRLFDQESCIRSLEGSGKPPVATPSGPHSNRTPSLQEVKIQRIGILQQLLRQEVEGLVGGQCVPLNGGSSLDMVELQPLLTEISRTLNATEHNSGTSHLPGLLKHSGLPKPCLPEECGEPQPCPPAEPGPPEAFCRSEPEIPEPSLQEQLEVPEPYPPAEPRPLESCCRSEPEIPESSRQEQLEVPEPCPPAEPRPLESYCRIEPEIPESSRQEQLEVPEPCPPAEPGPLQPSTQGQSGPPGPCPRVELGASEPCTLEHRSLESSLPPCCSQWAPATTSLIFSSQHPLCASPPICSLQSLRPPAGQAGLSNLAPRTLALRERLKSCLTAIHCFHEARLDDECAFYTSRAPPSGPTRVCTNPVATLLEWQDALCFIPVGSAAPQGSP [TROAP]”: in series [1], the “solubility change mitosis (log2)” value was determined as 0.651. In addition, the “solubility in G1/S (log2)” value in series [2] amounted to 0.0401.
Consider “MVARVWSLMRFLIKGSVAGGAVYLVYDQELLGPSDKSQAALQKAGEVVPPAMYQFSQYVCQQTGLQIPQLPAPPKIYFPIRDSWNAGIMTVMSALSVAPSKAREYSKEGWEYVKARTK [MIC13]”, for which the “solubility change mitosis (log2)” value in series [1] is 0.449. In series [2], the “solubility in G1/S (log2)” value is 0.091.
In the same order, the values of “MVDHLANTEINSQRIAAVESCFGASGQPLALPGRVLLGEGVLTKECRKKAKPRIFFLFNDILVYGSIVLNKRKYRSQHIIPLEEVTLELLPETLQAKNRWMIKTAKKSFVVSAASATERQEWISHIEECVRRQLRATGRPPSTEHAAPWIPDKATDICMRCTQTRFSALTRRHHCRKCGFVVCAECSRQRFLLPRLSPKPVRVCSLCYRELAAQQRQEEAEEQGAGSPGQPAHLARPICGASSGDDDDSDEDKEGSRDGDWPSSVEFYASGVAWSAFHS [PLEKHF1]” are 0.00206 and 0.0679.
Take “MVKLIHTLADHGDDVNCCAFSFSLLATCSLDKTIRLYSLRDFTELPHSPLKFHTYAVHCCCFSPSGHILASCSTDGTTVLWNTENGQMLAVMEQPSGSPVRVCQFSPDSTCLASGAADGTVVLWNAQSYKLYRCGSVKDGSLAACAFSPNGSFFVTGSSCGDLTVWDDKMRCLHSEKAHDLGITCCDFSSQPVSDGEQGLQFFRLASCGQDCQVKIWIVSFTHILGFELKYKSTLSGHCAPVLACAFSHDGQMLVSGSVDKSVIVYDTNTENILHTLTQHTRYVTTCAFAPNTLLLATGSMDKTVNIWQFDLETLCQARRTEHQLKQFTEDWSEEDVSTWLCAQDLKDLVGIFKMNNIDGKELLNLTKESLADDLKIESLGLRSKVLRKIEELRTKVKSLSSGIPDEFICPITRELMKDPVIASDGYSYEKEAMENWISKKKRTSPMTNLVLPSAVLTPNRTLKMAINRWLETHQK [WDSUB1]”: in series [1], the “solubility change mitosis (log2)” value is -0.112. Further, in series [2], the “solubility in G1/S (log2)” value was -0.0154.

(Values after the supplement of paper PMC5998384.)
